Test results reported in patent US20170151309A1.
Read-outs that look alike come from different tables or passages of the source.

Tests used:
Assay in all cases: cell-based or functional assay
[1] = molecular target: adiponectin receptor 2 (human) (UniProt Q86V24)
[2] = molecular target: adiponectin receptor 1 (human) (UniProt Q96A54)
[3] = molecular target: adiponectin receptor 2 (human) (UniProt Q86V24); remark: listed apart in the source
[4] = molecular target: adiponectin receptor 1 (human) (UniProt Q96A54); remark: listed apart in the source

Sequence of adiponectin receptor 2 (human) (Q86V24 whole entry): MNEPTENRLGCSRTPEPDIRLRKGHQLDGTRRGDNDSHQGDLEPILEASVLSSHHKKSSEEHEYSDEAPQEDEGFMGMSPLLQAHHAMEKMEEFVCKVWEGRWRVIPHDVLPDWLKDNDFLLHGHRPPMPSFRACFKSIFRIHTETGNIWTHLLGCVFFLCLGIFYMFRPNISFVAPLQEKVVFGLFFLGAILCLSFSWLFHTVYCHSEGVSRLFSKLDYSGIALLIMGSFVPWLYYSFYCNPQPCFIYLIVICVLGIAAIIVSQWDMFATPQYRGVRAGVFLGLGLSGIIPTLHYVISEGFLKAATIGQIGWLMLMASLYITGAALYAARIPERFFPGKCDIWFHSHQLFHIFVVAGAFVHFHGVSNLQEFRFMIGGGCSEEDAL
Sequence of adiponectin receptor 1 (human) (Q96A54 whole entry): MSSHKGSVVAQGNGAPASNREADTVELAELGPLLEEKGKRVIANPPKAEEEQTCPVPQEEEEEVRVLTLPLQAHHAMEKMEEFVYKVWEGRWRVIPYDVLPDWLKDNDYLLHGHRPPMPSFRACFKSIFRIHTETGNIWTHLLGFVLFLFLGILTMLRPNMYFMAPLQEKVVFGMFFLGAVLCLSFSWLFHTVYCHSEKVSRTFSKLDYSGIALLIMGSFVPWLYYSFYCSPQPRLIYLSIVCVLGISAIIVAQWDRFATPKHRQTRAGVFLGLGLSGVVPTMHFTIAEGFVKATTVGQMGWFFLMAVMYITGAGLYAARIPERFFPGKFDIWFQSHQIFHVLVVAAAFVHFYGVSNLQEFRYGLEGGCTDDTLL

Substance: adiponectin (from UniProt Q15848 19-244) (ligand)
- EC50 of inhibition of PBL transendothelial migration (static adhesion assay) [1]: 40 nM
- EC50 of inhibition of PBL transendothelial migration (static adhesion assay) [2]: 40 nM
- EC50 of inhibition of PBL transendothelial migration (static adhesion assay) [3]: 0.94 µg/mL
- EC50 of inhibition of PBL transendothelial migration (static adhesion assay) [4]: 0.94 µg/mL
